Reference: the nanobody polyreactivity screen of Harvey et al. (2022)

Experiment: yeast display, Sf9 membrane polyspecificity reagent, FACS + sequencing; frameworks hold sequencing errors
Procedure, shortened: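 Genes from sorted yeast were amplified by colony PCR, read by MiSeq 2 × 250 sequencing and filtered on CDR length. These cells carried a synthetic nanobody library in Saccharomyces cerevisiae BJ5465 and were sorted by FACS into low and high (top ~1%) gates on anti-HA and streptavidin fluorescence. Polyreactivity is labelled according to the gate of origin.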

Sequence | polyreactivity (PSR sort gate)
QVQLVESGGGLVQAGGSLRLTCAASGSTFSKNAMGWYRQATGNERELVASISSSVGSTYYSDSVKGRFTISRDNAKNTVYLQMNSLKPEDTAVYYCATRRGRGYYYWGQGTQVTVSS | high polyreactivity
QVQLVESGGGLVQAGGSLRLTCAASGSTFWAYAMGWYRQAPGKERELVAAITTGGGRTFYADSVKGRFTISRDNAKNTVYLQMNSLIPEDTAVYYCAAVSQSYRMYYWGQGTQVTVSS | low polyreactivity
QVQLVESGGGLVQAGGSLRLTCAASGSTFYIYAMGWDRQAPGKEAEFVAAIDFSGSSTYADSVKGRFTISRDNAKNTVYLQMNSLKPEDTAVYYCAAYQIYQYDGPYDYWGEGTQVTVSS | low polyreactivity
QVQLVESGGGLVQAGGSLRLTCAASGSTFYPYAMGWYRQAPGKERELVAAISSGGSTYYADSVKGRFTISRDNAKNSVYLQMNSLKPEDTAVYYCAADFYYAYYWGQGTQVTVSS | low polyreactivity
QVQLVESGGGLVQAGGSLRLTCAASGSTLYSYAMGWYRPAPGKERELVAAISKSGGRTYYADSVKGRFTISRDNAKISVYLEMNSLKPEDTAVYYCAGREKYTPALEVEYWGQGTQVTVSS | high polyreactivity
QVQLVESGGGLVQAGGSLRLTCAASGSTYLNYAMGWYRQAPGKERELVAAITSGGRTYYADSVKGRFTISRDNAKNTVYLQMNSLKPEDTAVYYCAKVSYRYGLYDYWGQGTQVTVSS | high polyreactivity
QVQLVESGGGLVQAGGSLRLTCAASGYAMGWYRQAPGKERELVAAISWSGDITYADSVKGRFTISRDNAKNTVYLQMNRLKPEDTAVYSCNADRYTGRDGEQSLDYWGQGTQVTVSS | low polyreactivity
QVQLVESGGGLVQAGGSLRLTCAASGYTFNYYAKGWYRQAPGKERELVAAIDWSDGTTYYADSVKGRFTISPDYAKNTVYLQMNSLKPEDTAVYYCAASLSQSEYDYWGQGTLVTVSS | low polyreactivity
QVQLVESGGGLVQAGGSLRLTCAASRIIFRKYAMGWYRQAPGKERELVAAISSSAGSTYYADSVKGRFTISRDNAKNTVYLQMNSLKPEDTAVYYCAADRHYTRYDYWGQGTQVTVSS | high polyreactivity
QVQLVESGGGLVQAGGSLRLTCAATGRTFYNGMGWYRQAPGKERELVAAISRGGSTYYADSVKGRFTISRDNAKNTFYLQMTSLKPEDTAVYYCAIDQSRYVYVTLRGGYWGLGTQVTVSS | low polyreactivity
QVQLVESGGGLVQAGGSLRLTCADSGIIYTYNAMRWYRQAPGKEMEFVATITWSGGSTYYADSVKGRFTISRDNAMNTVYFQMNSLKPEDTAVYYCAVDYSRHGYWSPVYEFNYWGQGTQVTVSS | low polyreactivity
QVQLVESGGGLVQAGGSLRLTCAPSVRIFTIYDMGRYRQAPGKERELVATITYSSGSTSYADSVKGRFTISRDNAKNTVYLLMNSLKPEDTAVYYCAKKYYSGYGYWGQGTQVTVSS | low polyreactivity
QVQLVESGGGLVQAGGSLRLTCDASGYIFSKYAMGWYRQAPGKERELVAAISGSGGSTSYADSVKGRFTISRDNAKNTVYLQMYCLKPEDTAVYYCIARSRLQRGRMDYWGQGTQVTVSS | high polyreactivity
QVQLVESGGGLVQAGGSLRLTSAASGYIFEEYDMGCYRQAPGKERELVAAIRFSSASTTYADSVKGRFTISRDNAKNTVYLQMNSLKPEDTAVYYCAVKAGDVYSDYDYWGQGTQVTVSS | low polyreactivity
QVQLVESGGGLVQAGGSLRSSCAATGRTFYYNGMGWYRQAPGKERELVATITNGGSTNYADSVKGRFTISRDNAKNTVYLQMNSLKPEDTAVSYCAKTLASDCYDYWGQGTQVTVSS | low polyreactivity
QVQLVESGGGLVQAGGSLRVICAASGIIFPIYAMGWYRQAPGKEWELVAGISTGGGGTYYADSVKGRFTISRDNAKNTVYLQKNSLKPEDTAVYYCNVDAAGSNSHARHDSWGQGTQVTVSS | low polyreactivity
QVQLVESGGGLVQAGGSLRVICAASGLIFYGYMGWSRQAPGKERELVAAISYTGGSTYYADSVKGRFTISRDNAKNTVYVQMNSLKPEDTAVYYCARDWRTKWFGYWGQGTQVTVSS | low polyreactivity
QVQLVESGGGLVQAGGSLRVICAPSGSTFGVYAMGWYRQAPGKERDLVAAISDTGGSTYYADSVKGRFTISRDNAKTTVYLQMNSLKPEDTAVYYCAVEVGYTDSPYSYDYWGHGTQVTVSS | low polyreactivity
